Assay results: patent US8409836B2, “Treatment of cellulosic material and enzymes useful therein” (Roal Oy, priority 2005, dated 2013)

What was measured:
Assay type in all cases: biochemical
[1] = Endoglucanase activity on carboxymethyl cellulose; settings: purified endoglucanase, 50° C., procedure of IUPAC 1987
Protocol: The specific activity of the preparations was determined using 4-methylumbelliferyl-β-D-lactoside (MUL), 4-methylumbelliferyl-β-D-cellobioside (MUG2) or 4-methylumbelliferyl-β-D-cellotrioside (MUG3) as substrate (van Tilbeurgh et al., 1988) in 0.05 M sodium citrate buffer pH 5 at 50° C. for 10 min. Endoglucanase and xylanase activities were determined by standard procedures (according to IUPAC, 1987) using carboxymethyl cellulose (CMC) and birch glucuronoxylan (Bailey et al., 1992) as substrates. Specific activity against Avicel was calculated on the basis of reducing sugars formed in a 24 h reaction at 50° C., pH 5.0, with 1% substrate and 0.25 μM enzyme dosage. The protein content of the purified enzyme preparations was measured according to Lowry et al., 1951. To characterize the end products of hydrolysis, soluble sugars liberated in 24 h hydrolysis experiment, as described above, were analysed by HPLC (Dionex). Purified cellobiohydrolase I (CBHI/Cel7A) of Trichoderma reesei was used as a reference.
(§1) Acremonium thermophilum ALKO4245 was grown as described in Example 1. The culture supernatant was incubated at 70° C. for 24 hours after which it was concentrated by ultrafiltration. The pure endoglucanase was obtained by sequential purification with hydrophobic interaction and cation exchange chromatography followed by gel filtration. The endoglucanase activity of the fractions collected during purification was determined using carboxymethyl cellulose (CMC) as substrate (procedure of IUPAC 1987). Protein content was measured by BioRad Assay Kit (Bio-Rad Laboratories) using bovine serum albumine as standard.
as §1, with “Thermoascus aurantiacus ALKO4242 was” for “Acremonium thermophilum ALKO4245 was”, “1.” for “1. The culture supernatant was incubated at 70° C. for 24 hours after which it was concentrated by ultrafiltration.”, “and anion” for “and cation”

[2] = pH optimum of heterologously produced endoglucanases; settings: McIlvaine's buffer; for pH optimum: pH range 4.0-8.0, CMC, 10 min, 50° C.
Protocol: (§2) The pH optimum of the heterologously produced endoglucanases was determined in the universal McIlvaine's buffer within a pH range of 4.0-8.0 using carboxymethylcellulose as substrate. As shown in FIG. 6 A the broadest pH range (4.5-6.0) is that of the Acremonium EG—40/Cel45A protein, the optimum being at pH 5.5. The pH optima for the other heterologously produced endoglucanases are pH 5.0-5.5 and 6.0 for Acremonium EG—40_like/Cel45B and Thermoascus EG—28/Cel5A, respectively. The optimal temperature for enzymatic activity of these endoglucanases was determined at the temperature range of 50-85° C. as described above. The highest activity of the enzymes was determined to be at 75° C., 60° C., and 75° C. for the Acremonium EG—40/Cel45A, EG—40 like/Cel45B, and Thermoascus EG—28/Cel5A, respectively (FIG. 6 B).

[3] = Temperature optimum of heterologously produced endoglucanases; settings: temperature range 50-85° C., CMC
Protocol: as §2

[4] = Hydrolysis with endoglucanase preparations, spruce; settings: 48 h, 45° C., pH 5.0
Protocol: (§3) The preparations containing the endoglucanases were compared in hydrolysis studies mixed with the purified CBH/Cel7 and CBH/Cel6 enzymes on several pre-treated substrates. Culture filtrates of T. reesei, containing different cloned endoglucanase enzymes were obtained as described in Example 19. The enzymes were enriched by removing thermolabile proteins from the mixtures by a heat treatment (60° C., 2 h, pH 5) and the supernatant was used for the hydrolysis studies. In addition, pure T. reesei cellulases (purified as described by Suurnäkki et al., 2000) were used in the enzyme mixtures. The endoglucanases used in the experiment were:
Washed steam pre-treated spruce fibre (impregnation with 3% SO2 for 20 min, followed by steam pre-treatment at 215° C. for 5 min), dry matter 25.9% (SPRUCE).
(§4) The endoglucanases to be studied (dosage 840 nkat/g dry matter, based on endoglucanase activity against HEC according to IUPAC, 1987) were used either with cellobiohydrolases of T. reesei (CBHI/Cel7A, 8.1 mg/g d.m. and CBHII/Cel6A, 2.0 mg/g d.m.) or with Thermoascus aurantiacus Cel7A with genetically attached CBD of T. reesei (10.1 mg/g d.m.). Purified (Suurnäkki et al., 2000) EGI (Cel7B) and EGII (Cel5A) of T. reesei were also included in the experiments for comparison. All mixtures were supplemented with additional β-glucosidase from Novozym 188 (to make the total β-glucosidase dosage 560 nkat/g d.w., the relatively high dosage was used to compensate the differences in the background activities of the different EG preparations). Triplicate tubes were incubated in mixing at 45° C. for 48 h and reference samples with inactivated enzymes and corresponding substrates were prepared. The release of hydrolysis products was measured as reducing sugars with DNS method using glucose as standard (Table 31).

[5] = Hydrolysis with endoglucanase preparations, corn stover; settings: 48 h, 45° C., pH 5.0
Protocol: as §3
Steam exploded corn stover fibre (steam pre-treatment at 210° C. for 5 min), dry matter 31.0% (SECS).
as §4

[6] = pH optimum of heterologously produced β-glucosidases; settings: McIlvaine's buffer, pH range 3.0-8.0, 4-nitrophenyl-β-D-glucopyranoside
Protocol: (§5) The pH optimum of the heterologously produced β-glucosidases was determined in the universal McIlvaine's buffer within a pH range of 3.0-8.0 using 4-nitrophenyl-β-D-glucopyranoside as substrate. The pH optima for the Acremonium βG—101, Chaetomium βG—76, and Thermoascus βG—81 are pH 4.5, 5.5, and 4.5, respectively (FIG. 7 A). The optimal temperature for enzymatic activity of these β-glucosidases was determined at the temperature range of 50-85° C. as described above. The highest activity of the enzymes was determined to be at 70° C., 65° C., and 75° C. for the Acremonium βG—101/Cel3A, Chaetomium βG—76/Cel3A, and Thermoascus βG—81/Cel3A, respectively (FIG. 7 B).

[7] = Temperature optimum of heterologously produced β-glucosidases; settings: temperature range 50-85° C., 60 min
Protocol: as §5

[8] = with CBHI and CBHII of T. reesei
[9] = with T. aurantiacus Cel7A + Tr CBD

Molecule | Specific activity on CMC [1] | pH range (broadest) ([2]; CMC) | pH optimum [2] | Temperature of highest activity [3] | Hydrolysis products as reducing sugars, SPRUCE [4, 8] | Hydrolysis products as reducing sugars, SPRUCE [4, 9] | Hydrolysis products as reducing sugars, SECS [5, 8] | Hydrolysis products as reducing sugars, SECS [5, 9] | pH optimum [6] | Temperature of highest activity [7]
At EG_40: endoglucanase of Acremonium thermophilum ALKO4245, gene At cel45A, amino acid SEQ ID NO: 12 (protein) MRSSPFLRAALAAALPLSAHALDGKSTRYWDCCKPSCGWPGKASVNQPVFSCSADWQRISDFNAKSGCDGGSAYSCADQTPWAVNDNFSYGFAATAIAGGSESSWCCACYALTFNSGPVAGKTMVVQSTSTGGDLGSNQFDLAIPGGGVGIFNGCASQFGGLPGAQYGGISDRSQCSSFPAPLQPGCQWRFDWFQNADNPTFTFQRVQCPSELTSRTGCKRDDDASYPVFNPPSGGSPSTTSTTTSSPSGPTGNPPGGGGCTAQKWAQCGGTGFTGCTTCVSGTTCQVQNQWYSQCL | 450 nkat/mg | 4.5-6.0 | 5.5 | 75 °C | 4.9 mg/mL | 4.8 mg/mL | 4.3 mg/mL | 4.0 mg/mL | – | –
Ct βG_76: beta-glucosidase of Chaetomium thermophilum ALKO4261, gene Ct cel3A, amino acid SEQ ID NO: 26 (protein) MALHAFLLLASALLARGALSQPDNVRRAAPTGTAAWDAAHSQAAAAVSRLSQQDKINIVTGVGWGKGPCVGNTNPVYSINYPQLCLQDGPLGIRSATSVTAFTPGIQAASTWDVELIRQRGVYLGQEARGTGVHVLLGPVAGALGKIPHGGRNWEAFGSDPYLAGIAMSETIEGIQSEGVQACAKHYIANEQELNRETMSSNVDDRTMHELYLWPFADAVHSNVASVMCSYNKLNGTWLCENDRAQNQLLKRELGFRGYIVSDWNAQHTTVGSANSGMDMTMPGSDFNGWNVLWGPQLNNAVNSGQVSQSRLNDMVQRILAAWYLLGQNSGYPSINLRANVQANHKENVRAVARDGIVLLKNDGILPLQRPNKIALVGSAAVVNPRGMNACVDRGCNEGALGMGWGSGTVEYPYFVAPYDALRERAQRDGTQISLHASDNTNGVNNAVQGADAAFVFITADSGEGYITVEGHAGDRNHLDPWHNGNQLVQAVAQANKNVIVVVHSVGPVILETILNTPGVRAVVWAGLPSQESGNALVDVLYGLVSPSGKLVYTIAKSPSDYPTSIVRGDDNFREGLFIDYRHFDNARIEPRFEFGFGLSYTNFSYSNLGISSSATAGPATGPTVPGGPADLWNYVATVTATVTNTGGVEGAEVAQLYISLPSSAPASPPKQLRGFVKLKLAPGQSGTATFRLRKRDLAYWDVGRQNWVVPSGRFGVLVGASSRDIRLQGEIVV | – | – | – | – | – | – | – | – | 5.5 | 65 °C
At EG_40_like: endoglucanase of Acremonium thermophilum ALKO4245, gene At cel45B, amino acid SEQ ID NO: 14 (protein) MRLPLPTLLALLPYYLEVSAQGASGTGTTTRYWDCCKPSCAWPLKGNSPSPVQTCDKNDRPLNDGGNTKSGCDNGGGAFMCSSQSPWAVNETTSYGWAAVRIAGSTESAWCCACYELTFTSGPVSGKKLIVQATNTGGDLGSNHFDLAIPGGGVGQSNACTNQYGAPPNGWGDRYGGVHSRSDCDSFPAALKAGCYWRFDWFQGADNPSVSFKQVACPAAITAKSGCTRQNDAINETPTGPSTVPTYTASG | – | – | 5.0-5.5 | 60 °C | 4.5 mg/mL | – | 4.8 mg/mL | – | – | –
